Test results taken from the supplement of paper PMC9732359.
± gives the uncertainty stated by the source.

Assay: protein stability index of a GFP-peptide fusion (yeast GPS) (PSI 1-4); higher = more stable; sorted into four equal gates, so the index is relative within each strain
Method in brief: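 Plasmids in a pooled yeast library fused tiled 17-residue yeast protein peptides downstream of GFP and also expressed Cherry. Mid-log cultures grown without leucine were sorted into four equal gates by GFP/Cherry fluorescence ratio. Each gate's plasmids were PCR-amplified and Illumina-sequenced, and reads were matched to strains by barcodes. The protein stability index is derived by multiplying each gate's read frequency by its gate number and summing the results.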

Row | Sequence | protein stability index (doa10∆) | protein stability index (pdr5∆) | protein stability index (ubr1∆) | protein stability index (san1∆)
1 | ASYAKIEIKISDPLTVF [SNU114] | 1.21 ± 0.15 | 2.66 ± 0.25 | 1.45 ± 0.089 | 
2 | ATAFNKTRGPFHFRAPS [RPL16A] | 2.67 ± 0.12 | 3.07 ± 0.1 | 2.71 ± 0.072 | 2.56 ± 0.094
3 | ATAVAHVKAGKGLIKVN [RPS16A] | 1.66 ± 0.2 | 1.9 ± 0.12 | 1.21 ± 0.24 | 
4 | ATIIGIISTAIADSTHV [ECM29] | 1.74 ± 0.073 | 1.65 ± 0.061 | 1.51 ± 0.04 | 1.95 ± 0.066
5 | ATKAINGCIFTLNPKTG [PRP8] | 2.79 ± 0.095 | 2.73 ± 0.076 | 2.88 ± 0.062 | 2.71 ± 0.059
6 | ATLGIDPPKGILLYGPP [RPT1] | 2.97 ± 0.078 | 2.96 ± 0.077 | 2.98 ± 0.047 | 2.95 ± 0.13
7 | ATNTFGSNQQSSTGGGL [YGR119C/NUP57] | 2.89 ± 0.12 | 3.23 ± 0.076 | 2.9 ± 0.075 | 3.15 ± 0.13
8 | ATSDNKTTNTTPSFSFG [YJL041W/NSP1] | 3.13 ± 0.063 | 3.05 ± 0.076 | 3.1 ± 0.042 | 3.09 ± 0.032
9 | ATSSTNANAGLFNKPPS [YOR098C/NUP1] | 2.86 ± 0.053 | 3.06 ± 0.073 | 3.3 ± 0.058 | 3.05 ± 0.079
10 | ATVPSGRPETYIWRYLP [RPO31] | 2.27 ± 0.12 | 1.81 ± 0.092 | 1.49 ± 0.11 | 1.16 ± 0.16
11 | AVATPKAEVTQLSNGIV [COR1] | 2.77 ± 0.074 | 3.11 ± 0.066 | 2.88 ± 0.045 | 3.12 ± 0.053
12 | AVDAKQLAQIRQFLKAN [YML103C/NUP188] | 2.58 ± 0.12 | 3.06 ± 0.079 | 2.78 ± 0.067 | 2.96 ± 0.093
13 | AVKDQQKYTKEMIDSHI [SNF2] | 2.8 ± 0.062 | 2.68 ± 0.051 | 2.95 ± 0.043 | 2.38 ± 0.068
14 | AVKLGDLKKFTSTITKY [RPN3] | 2.1 ± 0.056 | 2.51 ± 0.044 | 2.56 ± 0.035 | 2.27 ± 0.066
15 | AVNMTQNIMTLPDGKNG [MED6] | 2.79 ± 0.11 | 3.04 ± 0.056 | 3.07 ± 0.062 | 2.67 ± 0.059
16 | AVTEATSTNGDSENNEE [RGR1] | 3.13 ± 0.14 | 3.3 ± 0.076 | 3.08 ± 0.073 | 3.36 ± 0.068
17 | AVVGQQIISGNRVPDGF [RPO31] |  | 3.28 ± 0.28 | 2.65 ± 0.13 | 2.88 ± 0.2
18 | AVVVGTGNIKHEDLVNS [COR1] | 3.05 ± 0.11 | 2.79 ± 0.12 | 2.71 ± 0.11 | 2.93 ± 0.077
19 | AVYFADTSGLKISNSEF [SIN4] | 2.96 ± 0.072 | 3.32 ± 0.08 | 3.18 ± 0.063 | 3.1 ± 0.049
20 | AYSMGAQNQGGQVSMSQ [PGD1] | 3.15 ± 0.095 | 3.2 ± 0.084 | 3.22 ± 0.076 | 3.02 ± 0.094
21 | AYVVNDTAPKPNIVEID [DLS1] | 3.26 ± 0.24 | 3.22 ± 0.19 | 3.15 ± 0.19 | 2.97 ± 0.11
22 | CAYTGTGDVLLIQDLLH [RPN1] | 3.01 ± 0.059 | 2.88 ± 0.064 | 2.8 ± 0.052 | 2.75 ± 0.065
23 | CCINAAFLALVDAGIAL [RRP46] | 2.37 ± 0.078 | 2.88 ± 0.07 | 2.62 ± 0.051 | 2.06 ± 0.061
24 | CCTKFFTMMTSEPLTLK [PCI8] | 2.03 ± 0.07 | 2.15 ± 0.057 | 1.64 ± 0.053 | 1.98 ± 0.12
25 | CDYYNTFLLNNKNIDIG [RPN2] | 3.14 ± 0.087 | 3.04 ± 0.076 | 2.79 ± 0.086 | 2.85 ± 0.069
26 | CEISGSIEQLRNVVEDI [BRN1] | 3.25 ± 0.18 | 3.33 ± 0.2 |  | 3.09 ± 0.19
27 | CFMHLLVQLFLWDSKEL [RPN3] | 1.23 ± 0.078 | 1.6 ± 0.064 | 1.54 ± 0.15 | 1.61 ± 0.15

Row | Sequence | protein stability index (doa10∆) | protein stability index (pdr5∆) | protein stability index (ubr1∆) | protein stability index (san1∆)
28 | CINELDNWNAPLIMATC [RPO31] | 3.18 ± 0.16 | 2.66 ± 0.14 | 3.54 ± 0.12 | 3.3 ± 0.07
29 | CKLFDKISFNLRLKLFL [SRB8] | 1.41 ± 0.069 | 1.23 ± 0.055 | 1.18 ± 0.046 | 1.2 ± 0.086
30 | CLNCEKSKLFEWKSEFV [SNM1] | 2.61 ± 0.14 | 2.68 ± 0.13 | 2.7 ± 0.12 | 2.97 ± 0.067
31 | CLSPGAFLSKVPEFFQT [SRP14] | 2.73 ± 0.098 | 2.44 ± 0.13 | 2.6 ± 0.068 | 2.87 ± 0.17
32 | CMEVASAFMKFSKAIEW [BRR2] | 2.12 ± 0.064 | 2.21 ± 0.047 | 1.98 ± 0.043 | 2.42 ± 0.068
33 | CRDSDDHKRFIVFHNEF [DIS3] | 3.02 ± 0.1 | 3.26 ± 0.084 | 3.23 ± 0.065 | 2.33 ± 0.2
34 | CRQEFLERVKANAAKRA [RPL21A] |  | 1.33 ± 0.23 |  | 
35 | CRSCPYEFPIEGIEIYD [RPC11] | 1.73 ± 0.078 | 2.32 ± 0.11 | 2.08 ± 0.093 | 1.85 ± 0.11
36 | CTEAGLLALRERRMQVT [RPT2] | 2.17 ± 0.092 | 2.9 ± 0.15 | 2.7 ± 0.11 | 2.33 ± 0.14
37 | CTESTRENALYDYYALQ [SNF2] | 1.83 ± 0.078 | 2.25 ± 0.064 | 2.91 ± 0.083 | 2.99 ± 0.048
38 | CTQMTDEGLLNMVSLRG [GRR1] | 2.78 ± 0.1 | 2.66 ± 0.083 | 2.02 ± 0.054 | 2.22 ± 0.088
39 | CVAAWGVCNHAFHLHCI [HRT1] | 1.69 ± 0.05 | 1.75 ± 0.065 | 2.28 ± 0.045 | 1.52 ± 0.076
40 | CWLSNIDIQTQDLNQRF [RRI1] | 2.72 ± 0.11 | 3.23 ± 0.11 | 3.17 ± 0.079 | 3.24 ± 0.072
41 | DAHGVTQARVITGNKIM [RPS13] | 2.21 ± 0.088 | 1.61 ± 0.071 | 1.56 ± 0.062 | 1.22 ± 0.12
42 | DAIIPFAAIPEQGIELE [FAS2] | 3.12 ± 0.15 | 2.84 ± 0.2 | 3.41 ± 0.1 | 3.42 ± 0.084
43 | DAITVKDVKAWAGKRLW [COR1] | 3.01 ± 0.069 | 2.8 ± 0.067 | 2.37 ± 0.044 | 2.87 ± 0.063
44 | DAKKARFWSFMKTQRFV [SIR4] | 2.6 ± 0.096 | 2.88 ± 0.069 | 2.75 ± 0.066 | 2.67 ± 0.069
45 | DAKSTPLRLRLYDNFVS [RPN9] | 3.3 ± 0.083 | 3.22 ± 0.088 | 2.87 ± 0.082 | 3.21 ± 0.063
46 | DALLNSTTEHINIDDLL [YJL039C/NUP192] | 2.47 ± 0.24 | 2.73 ± 0.12 | 3.17 ± 0.059 | 2.59 ± 0.092
47 | DATANATANATANATAN [DSN1] | 3.25 ± 0.086 | 3.04 ± 0.071 | 3.12 ± 0.043 | 3.37 ± 0.053
48 | DATRVFVNGVWHGVHRN [RPB2] | 3.04 ± 0.093 | 3.35 ± 0.071 | 3.27 ± 0.066 | 3.28 ± 0.048
49 | DDDEIVMPVPNVRSSVL [SKP1] | 2.42 ± 0.053 | 2.25 ± 0.058 | 2.48 ± 0.051 | 2.45 ± 0.062
50 | DDENEPKRKRRLPVSED [YOR098C/NUP1] | 3.34 ± 0.1 | 3.28 ± 0.14 | 3.06 ± 0.072 | 3.09 ± 0.087
51 | DDFTNELKAELDRYKRE [SEM1] | 3.09 ± 0.17 | 3.36 ± 0.14 | 3.47 ± 0.24 | 2.97 ± 0.11
52 | DDIFIPQNMLFEGCYYT [RPC25] | 2.51 ± 0.17 | 2.89 ± 0.23 | 2.76 ± 0.12 | 2.43 ± 0.12
53 | DDIFIRYLTLLSNEFTA [ECM29] | 2.14 ± 0.056 | 1.91 ± 0.051 | 1.76 ± 0.029 | 2.44 ± 0.074
